Consider 5 substances from the supplement of paper PMC5998384.

Data set [1] relates to HeLa Kyoto. The experiment in a line: thermal stability score vs G1/S (z-score of summed log2 fold changes over temperatures); higher = more thermally stable than in G1/S.
Data set [2] concerns HeLa Kyoto. The experiment in a line: solubility in G1/S (NP-40 vs SDS abundance) (log2 ratio); higher = more soluble. As to conditions: cell cycle stage: G1/S.
Data set [3] deals with HeLa Kyoto. The experiment in a line: solubility change mitosis vs G1/S (difference of NP-40 vs SDS log2 ratios) (log2 ratio difference); higher = more soluble in mitosis.
Data set [4] relates to HeLa Kyoto. The experiment in a line: melting temperature (median over replicates), in situ; higher = more thermally stable.
The mark [5] stands for this setting: cell cycle stage: early G1 (4.5 h after nocodazole release).
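Throughout, for melting temperature (median over replicates), in situ: HeLa Kyoto cells synchronized by double thymidine or nocodazole block, proteins quantified by TMT10plex mass spectrometry, three independent biological replicates.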
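Throughout, for solubility change mitosis vs G1/S (difference of NP-40 vs SDS log2 ratios): synchronized HeLa Kyoto cells (double thymidine block for G1/S, nocodazole release for mitosis), protein amounts in NP-40 versus SDS lysates quantified by mass spectrometry, three biological replicates.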
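Throughout, for solubility in G1/S (NP-40 vs SDS abundance): HeLa Kyoto cells arrested at G1/S by double thymidine block, proteins quantified by TMT10plex mass spectrometry in mild NP-40 versus SDS extracts, three biological replicates.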
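Throughout, for thermal stability score vs G1/S (z-score of summed log2 fold changes over temperatures): synchronized HeLa Kyoto cells, proteins quantified by TMT10plex mass spectrometry, three biological replicates, mitosis taken 0.5 h after nocodazole release, G1/S directly after double thymidine block.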

Take “MSGAALGLEIVFVFFLALFLLHRYGDFKKQHRLVIIGTLLAWYLCFLIVFILPLDVSTTIYNRCKHAAANSSPPENSNITGLYATANPVPSQHPCFKPWSYIPDGIMPIFWRVVYWTSQFLTWILLPFMQSYARSGGFSITGKIKTALIENAIYYGTYLLIFGAFLIYVAVNPHLHLEWNQLQTIGIAAANTWGLFLLVLLLGYGLVEIPRSYWNGAKRGYLLMKTYFKAAKLMTEKADAEENLEDAMEEVRKVNESIKYNHPLRKCVDTILKKCPTEYQEKMGRNMDDYEDFDEKHSIYPSEKSLVKLHKQVIYSVQRHRRTQVQWQILLEQAFYLEDVAKNETSATHQFVHTFQSPEPENRFIQYFYNPTFEWYWECLLRPWFYKILAVVLSIFSVIVVWSECTFFSTTPVLSLFAVFIQLAEKTYNYIYIEIACFLSIFFLSICVYSTVFRIRVFNYYYLASHHQTDAYSLLFSGMLFCRLTPPLCLNFLGLTHMDSSISHKNTQPTAYTSIMGSMKVLSFIADGFYIYYPMLVVILCIATYFSLGTRCLNLLGFQQFMGDDDMTSDLVNEGKELIRKEKRKRQRQEEGENRRREWKERYGHNREDSTRNRNIHTDPKESNFSDVNTNRSAFKYTRANNRTERDRIELLQDAEPLDFNAETFTDDPLESESGRYQPGGRYLSMSRSDIFNDV [LMBRD2]”: the thermal stability score in the data set with HeLa Kyoto [1] (setting [5]) was -0.0528; with HeLa Kyoto [1] (cell cycle stage: mitosis) it was -1.48. Besides, in the data set with HeLa Kyoto [2], the “solubility in G1/S (log2)” value was -0.331. The “solubility change mitosis (log2)” value with HeLa Kyoto [3] is -0.00686. Further, the melting temperature in the data set on HeLa Kyoto [4] (cell cycle stage: G1/S) is 55.4 °C; in the data set with HeLa Kyoto [4] (cell cycle stage: mitosis) it was 53.8 °C.
On to ATM, for which the results for the thermal stability score in the data set on HeLa Kyoto [1] (setting [5]) and in the data set with HeLa Kyoto [1] (cell cycle stage: mitosis) were 0.333 and 0.0333, respectively. Also, the “solubility in G1/S (log2)” value in the data set on HeLa Kyoto [2] is -0.339. Besides, the “solubility change mitosis (log2)” value with HeLa Kyoto [3] is -0.141. The melting temperature with HeLa Kyoto [4] (cell cycle stage: G1/S) was found to be 51.7 °C; with HeLa Kyoto [4] (cell cycle stage: mitosis) it was 51.3 °C.
With “MSKSFQQSSLSRDSQGHGRDLSAAGIGLLAAATQSLSMPASLGRMNQGTARLASLMNLGMSSSLNQQGAHSALSSASTSSHNLQSIFNIGSRGPLPLSSQHRGDADQASNILASFGLSARDLDELSRYPEDKITPENLPQILLQLKRRRTEEGPTLSYGRDGRSATREPPYRVPRDDWEEKRHFRRDSFDDRGPSLNPVLDYDHGSRSQESGYYDRMDYEDDRLRDGERCRDDSFFGETSHNYHKFDSEYERMGRGPGPLQERSLFEKKRGAPPSSNIEDFHGLLPKGYPHLCSICDLPVHSNKEWSQHINGASHSRRCQLLLEIYPEWNPDNDTGHTMGDPFMLQQSTNPAPGILGPPPPSFHLGGPAVGPRGNLGAGNGNLQGPRHMQKGRVETSRVVHIMDFQRGKNLRYQLLQLVEPFGVISNHLILNKINEAFIEMATTEDAQAAVDYYTTTPALVFGKPVRVHLSQKYKRIKKPEGKPDQKFDQKQELGRVIHLSNLPHSGYSDSAVLKLAEPYGKIKNYILMRMKSQAFIEMETREDAMAMVDHCLKKALWFQGRCVKVDLSEKYKKLVLRIPNRGIDLLKKDKSRKRSYSPDGKESPSDKKSKTDGSQKTESSTEGKEQEEKSGEDGEKDTKDDQTEQEPNMLLESEDELLVDEEEAAALLESGSSVGDETDLANLGDVASDGKKEPSDKAVKKDGSASAAAKKKLKKVDKIEELDQENEAALENGIKNEENTEPGAESSENADDPNKDTSENADGQSDENKDDYTIPDEYRIGPYQPNVPVGIDYVIPKTGFYCKLCSLFYTNEEVAKNTHCSSLPHYQKLKKFLNKLAEERRQKKET [MATR3]”, the figures for the thermal stability score in the data set with HeLa Kyoto [1] (setting [5]) and with HeLa Kyoto [1] (cell cycle stage: mitosis) were 9.67 and 19.4, respectively. Further, the “solubility in G1/S (log2)” value with HeLa Kyoto [2] was -0.173. Further, in the data set with HeLa Kyoto [3], the “solubility change mitosis (log2)” value was 0.223. Besides, the melting temperature was found to be 45.7 °C in the data set on HeLa Kyoto [4] (cell cycle stage: G1/S) and 48.2 °C in the data set with HeLa Kyoto [4] (cell cycle stage: mitosis).
Consider “MSESGHSQPGLYGIERRRRWKEPGSGGPQNLSGPGGRERDYIAPWERERRDASEETSTSVMQKTPIILSKPPAERSKQPPPPTAPAAPPAPAPLEKPIVLMKPREEGKGPVAVTGASTPEGTAPPPPAAPAPPKGEKEGQRPTQPVYQIQNRGMGTAAPAAMDPVVGQAKLLPPERMKHSIKLVDDQMNWCDSAIEYLLDQTDVLVVGVLGLQGTGKSMVMSLLSANTPEEDQRTYVFRAQSAEMKERGGNQTSGIDFFITQERIVFLDTQPILSPSILDHLINNDRKLPPEYNLPHTYVEMQSLQIAAFLFTVCHVVIVVQDWFTDLSLYRFLQTAEMVKPSTPSPSHESSSSSGSDEGTEYYPHLVFLQNKARREDFCPRKLRQMHLMIDQLMAHSHLRYKGTLSMLQCNVFPGLPPDFLDSEVNLFLVPFMDSEAESENPPRAGPGSSPLFSLLPGYRGHPSFQSLVSKLRSQVMSMARPQLSHTILTEKNWFHYAARIWDGVRKSSALAEYSRLLA [SMG9]”, for which the thermal stability score is -0.759 with HeLa Kyoto [1] (setting [5]) and -0.639 with HeLa Kyoto [1] (cell cycle stage: mitosis). Also, the “solubility in G1/S (log2)” value in the data set with HeLa Kyoto [2] was 0.242. The “solubility change mitosis (log2)” value in the data set with HeLa Kyoto [3] is -0.178. In addition, the melting temperature with HeLa Kyoto [4] (cell cycle stage: G1/S) stood at 49 °C; in the data set with HeLa Kyoto [4] (cell cycle stage: mitosis), 49.8 °C.
For the substance “MAAALGASGGAGAGDDDFDQFDKPGAERSWRRRAADEDWDSELEDDLLGEDLLSGKKNQSDLSDEELNDDLLQSDNEDEENFSSQGVTISLNATSGMVTSFELSDNTNDQSGEQESEYEQEQGEDELVYHKSDGSELYTQEYPEEGQYEGHEAELTEDQIEYVEEPEEEQLYTDEVLDIEINEPLDEFTGGMETLELQKDIKEESDEEEEDDEESGRLRFKTERKEGTIIRLSDVTRERRNIPETLELSAEAKAALLEFEERERQHKQGRYSSRRGGRRGGPLMCRGVGDQRRESTERGRMKDHRPALLPTQPPVVPQAPPPPPPPPQQQPIRSLFQPQPLQPLLPVQHPHHPSPPQGMHMPPQLETPRMMMTPPPVTPQQPKNIHINPHFKGTVVTPVQVPLLPVPSQPRPAVGPQRFPGPPEFPQHTPGPVPNSFSQPPRLPLQDQWRAPPPPQDRDPFFLGVSGEPRFPSHLFLEQRSPPPPPPPPTLLNSSHPVPTQSPLPFTQPGPAFNQQGQQPVFPRERPVRPALQPPGPVGILHFSQPGSATTRPFIPPRQPFLPGPGQPFLPTHTQPNLQGPLHPPLPPPHQPQPQQPQQQPPPQHQPPHQPPHQPPPQHQPPPQHPPQHPPQHQHHHHHHHLSVPPPPLMPMSQPQFRPHVQTAQPQASSSRMQCPQRQGLRHNTTSQNVSKRPMQQMQPTAPRNSNLRELPIAPSHVIEMSSSRCSATPSAQVKPIVSASPPSRAVAGSRSSQGKTEVKVKPASPVAQPKEEAKTETEFPDEDEETRLYRLKIEEQKRLREEILKQKELRRQQQAGARKKELLERLAQQQQQLYAPPPPAEQEEQALSPSPTNGNPLLPFPGAQVRQNVKNRLLVKNQDVSISNVQPKTSNFVPSSANMQYQGQQMKALKHLRQTRTVPQSQTQPLHKVLPIKPADVEEPAVPQTPRVASIQGRPQDTKPGVKRTVTHRTNSGGGDGPHISSKVRVIKLSGGGGESDGFFHPEGQPQRLPQPPEVGPQPARKVTLTRGGLQQPPHLPAGPHAHSPVPPGIKSIQGIHPAKKAIMHGRGRGVAGPMGRGRLMPNKQNLRVVECKPQPCVVSVEGLSSSTTDAQLKSLLMSVGPIQSLQMLPQQRKAIAKFKEPAHALAFQQKFHRHMIDLSHINVALIVE [RBM33]”, the figures for the thermal stability score in the data set on HeLa Kyoto [1] (setting [5]) and in the data set with HeLa Kyoto [1] (cell cycle stage: mitosis) were 0.706 and 2.36, respectively. The “solubility in G1/S (log2)” value in the data set on HeLa Kyoto [2] was -0.022. Further, the “solubility change mitosis (log2)” value with HeLa Kyoto [3] is -0.145. The melting temperature with HeLa Kyoto [4] (cell cycle stage: G1/S) came to 48.8 °C; in the data set on HeLa Kyoto [4] (cell cycle stage: mitosis), 50.8 °C.
